The text below walks through data of patent US20150351390A1, “COMPOSITIONS AND METHODS FOR AUXIN-ANALOG CONJUGATION” (PIONEER HI-BRED INTERNATIONAL, INC., priority 2012, published 2015).

The labels stand for the following.
B1: GmGH3-6: GH3 protein, accession XP_003540891.1 (protein)
chain: MPQHQPTLMEPVLSYNNSTNNGNGNSDYDIISWFEDVSQNAGFVQTQLLFQILKQNYGVEYLKKWLGSYNILEMDACALESLFSSVVPLASHADFEPFIQRIADGDTAPLLTQQPITTLSLSSGTTEGRQKFVPFTRHSAQTTLQIFTLAAAYRSRIYPIRQGGRILEFIYSSNRFKTKGGLTVGTATTHYYASEEFNIKQHKTKSFTCSPQEVISGGDYKQSTYCHLLLGLFFSDQVEFITSAFIYSMVQAFTTFEELWREICNDIRDGTLSSRIKSPKMRKAVLDIISPNPNLAAKLEDACKGLEVVDWFGLIPKLWPNAKYVYSIMTGSMQPYLKKLRHYANGLPLVSADYGSTESWIGVNVDPSLPPEDVTFAVVPTFSYFEFIPLHRNEKNFSSGGDDFIEDKPIPLSQIKVGQEYEVVLTTFTGLYRCRLGDVVEVAGFHNGTPKLNFVCRRKLILTINIDKNTEKDLQLVVERGSHILNMTSRGELVDFTSYADVSKQPGHYVIYWEIKGEVEDKILGACCNEMDKSFADHGYVVSRKTNSIGPLELCVLESGTFKKILDSFIANGAALSQFKTPRCTNNHVLLKILNTCTTKKFRSTAYNSSMEQ
modifications: Glycine max
B2: SlGH3-14: GH3 protein, SGN-E745758 (protein, listed as Solanum lycopersicum)
chain: MKMMVENIEKKFDAEEVIEDFEVLTKDAGRIQEETLEKILKENGGTEYLKQWGLNGRTDVETFKACVPIVGHNDLEPYIQRIADGDLSPILTGKPIETISLSSGTTQGKPKFVPFNDELMDSTMQIFKTSFAFRNREFPIGNGKALQFIYSSKQFKTKGGLAAGTATTNVYRNAQFKKTMNAMSTPVCSPDEVIFGPDFQQSLYCHLLSGLIFRDEVQVVSSTFAHSIVHAFRTFEQVWEELVVDIREGVLSSRVTVPSIRLAMSKLLKPDPELAETIYSKCSSLSNWYGLIPELFPNTKYIYGIMTGSMEPYLKKLRHYAGELPLLSADYGSSEGWVGVNVNPKFPPEMVTYAVLPNIGYFEFLPLEENLVGVEQANSPVGLTEVKLGEEYEIVFTNFAGLYRYRLGDVVKIKGFHNGTPELQFVCRRNLLLSINIDKNTEKDLQLAVEAAGKHLVDEKLEVMDFTSHVNVSADPGHYVIFWELSGEATDEILQECCNCLDKSFLDAGYVSSRKVNAIGALELRIVKRGTFHKILDHFVGLGGAVSQFKTPRCVGPKNSSLIQILSSNVVKSYSSTAFC
B3: SlGH3-8: GH3 protein, Solyc07g054580.2 (protein, listed as Solanum lycopersicum)
chain: MTNINCKDKIETDIIGWFDEVADDSAVVQRRTLRRILEMNHGVEYLKKWIGDIKIEEIDENLLESTYASLVPLASHADIEPFTKRIADGDTTPLLTQQPITNLSLSSGTTDGRQKFVPFTHHSSQTTLQIFKLAAAYRSRIYPIRRGGRILEFIYSSKQCKTKGGIIVGTATTHYYASDEFKIKQQQTKSFTCSPQEVISCGDYKQSTYCHLLLGLYFSHEVEFVTSAFAYSIVEAFRSFEEMWKELCHDIREGSLSSIINIDKVRKSVSGITQPNPELASRIESICVELERADWFSIIPKLWPNAKYVYSIMTGSMMPYLTKLRHYAGELPLVSADYGSTESWIGVNLDPSNPPEKVTFAVVPTFSYFEFIPLYKHKSNYNYQNVNLNSTNDDYIEGNSMPLCQVKSGQQYEIVITTFTGLYRYRLGDVVEVDGFYKKTPKLNFICRRNLILAINIDKNTEKDLQLVVERGARILSKGTRRAELVDFTSHANVTKQPGHYVIYWEIKGEIDEKVLDECCRDMDASFVDHGYVVSRRTKSIGPLELCIVERGTFKKILESYIGNGAALSQFKTPRCTSNKELLNILNVCTIKRFYSTAYG
B4: GmGH3-10: GH3 protein, accession XP_003541929.1 (protein)
chain: MPEAPKHLCHDPKDNLDDDDDDGSSNNNKRALEYIEEVTTNADEIQEKVLAQILSRSANAEYLQRHGLEGRTDRNTFKNIMPVVTYEDLKPDIDRIANGDTSPILCSKPISEFLTSSGTSGGERKLMPTIEEELERRSMLYSLLMPVMDQFVPDLDKGKGMYFLFTKSEAKTPGGLLARPVLTSYYKSSHFKHRKHDPYTNYTSPNETILCHDSYQSMYSQLLCGLYQNEEVLRVGAVFASGFIRALKFLEKHFVCLCNDIRTGTLDAKITDPSVREAVMKVLKPNPTLADFVETECMKGSWKGIITRIWPNTKYVDVIVTGTMSQYIPILDYYSNGLPLVCTMYASSECYFGLNLNPSCDPSEVAYTLIPTMAYFEFLPLDEINGHTNSISQLEQEHLVDLADVKLGQEYELVVTTYAGLYRYRVGDILRVAGFKNKAPQFNFVCRKNVVLSIDSDKTDEVELHNAVKSGAEQLAEFNASLTEYTSCVDTSTIPGHYVLYWEISTNDHTPTIPSSVFGHCCLSIEESLNSVYRQGRVSESIGPLEIKVVENGTFDKLMDFALSQGASINQYKTPRCVTYAPILDLLNSKVLSSYISPKCPNWVPGHKDWCTLH
modifications: Glycine max
B5: GmGH3-2: GH3 protein, accession XP_003521802.1 (protein)
chain: MLEKVEEFNMDKVIQEFELLTRDAERVQRETLKRILEDNASAEYLQSLGLNGRTDPESFKACVPMVTHKELEPYIYRIIDGDASPILTGKPITTMSLSSGTTQGKPKYVPWNDELYETTMQIYQTSFAFRNREFPIKNGKALSFIYGSKQLKTKGGLAARTATSNVFCSAGYKCAMRALQSQCCSPDEVIFGPDFFQSLYCHLLCGLIFREEVEFVSSTFAHSIVHAFRTFEQVWEELCNDIREGVLTRNVTVPSIRMAMSKLLKPNPELANAIHKKCTGLSNWYGLIPELFPNAKYIYGIMTGSMEPYLKKMRHYAGELPLLTADYGSSEGWIAANVNPQLPPEYATYAVLPHIGYFEFIPLLELENTKPLGLTQVKVGQEYEIVMTNPAGLYRYRLGDVVKVMGFHNSTPELKFIRRSSLLLNINIDKNTEKDLQLAVEAAGKLLAEEKLEVVDFSSQVDLSKEPGHYVIFWEISGDASQELLHECCNCLDKSFVDAGYTSSRKVNCIGALELRLVRRGTFQKILDHYLGLGTAVSQYKTPRCVGPTNTRVLQILSENVVNNYLSTAFN
modifications: Glycine max

The first assay can be described thus: LC-MS assay of GH3 conjugation of IAA with Asp or Glu. Type of assay: biochemical. The conditions noted are these: LC-MS; IAA with Asp. In a few lines:
(§1)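 N-His-tagged GH3 homologs expressed in E. coli C41(DE3) and Ni-NTA purified (44 to 164 μg/mL) were incubated 3 hours at 30° C. in 20 mM Tris-HCl pH 8.0, 5 mM MgCl2, 1 mM DTT with 5 mM each of auxin, ATP and Asp or Glu. Conjugates were quantified by LC-MS against standards.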
As for B1, the “Detected auxin conjugates: IAA-Asp” value is given as “Yes”.

For the molecule B2, the “Detected auxin conjugates: IAA-Asp” value was “No”.

Regarding B3, the “Detected auxin conjugates: IAA-Asp” value is “Yes”.

For B4, the “Detected auxin conjugates: IAA-Asp” value is on record as “Yes”.

In the case of B5, the “Detected auxin conjugates: IAA-Asp” value was “Yes”.

The assay is the same for the next values; noted with them: LC-MS; IAA with Glu.
For the molecule B1, the “Detected auxin conjugates: IAA-Glu” value was “Yes”.

With B2, the “Detected auxin conjugates: IAA-Glu” value is recorded as “No”.

For B3, the “Detected auxin conjugates: IAA-Glu” value is “Yes”.

As for B4, the “Detected auxin conjugates: IAA-Glu” value is recorded as “Yes”.

Regarding B5, the “Detected auxin conjugates: IAA-Glu” value is given as “No”.

A further assay is described as follows: LC-MS assay of GH3 conjugation of 2,4-D with Asp or Glu. Type of assay: biochemical. The conditions noted are these: LC-MS; 2,4-D with Asp. In outline:
as §1
B1: the “Detected auxin conjugates: 2,4-D-Asp” value is “No”.

For the molecule B2, the “Detected auxin conjugates: 2,4-D-Asp” value is given as “No”.

Turning to B3, the “Detected auxin conjugates: 2,4-D-Asp” value is on record as “Yes”.

For B4, the “Detected auxin conjugates: 2,4-D-Asp” value is “Yes”.

As for B5, the “Detected auxin conjugates: 2,4-D-Asp” value is “No”.

Staying with this assay, now noted: LC-MS; 2,4-D with Glu.
Turning to B1, the “Detected auxin conjugates: 2,4-D-Glu” value is recorded as “No”.

B2: the “Detected auxin conjugates: 2,4-D-Glu” value is “No”.

Turning to B3, the “Detected auxin conjugates: 2,4-D-Glu” value was “Yes”.

For the molecule B4, the “Detected auxin conjugates: 2,4-D-Glu” value was “Yes”.

On to B5, for which the “Detected auxin conjugates: 2,4-D-Glu” value is “No”.

The nature of another assay: LC-MS assay of GH3 conjugation of dicamba with Asp or Glu. The conditions noted are these: LC-MS; dicamba with Asp. It counts as biochemical. As for the experimental part: To detect and monitor the formation of acyl conjugates with 2,4-D or dicamba, a sensitive LC-MS method was developed using the respective amino acid conjugate standards. […] […] […] The supernatant was diluted 20× in water and then analyzed by LC-MS (AB Sciex 4000 QTrap coupled with Shimadzu Nexera UHPLC) using a Phenomenex Luna 3 μm Phenyl-Hexyl (00B-4256-Y0) column. The concentration of the conjugates was calculated based on the standards. Kinetic parameters were estimated by fitting initial velocity values to the Michaelis-Menten equation.
The GH3 superfamily conjugase activity analysis of IAA, 2,4-D or dicamba with Asp or Glu was done using LC-MS to analyze the final conjugate products as described in Example 1. Protein sequences of GH3 homologs (Table 3) were obtained from public databases (NCBI, http://www.ncbi.nlm.nih.gov/) by Blast analysis of AtGH3.17 protein sequence (accession # Q9FZ87). Coding sequences were designed for optimal expression in E. coli based on the protein sequences and synthesized. Synthesized coding sequences along with N-term his-tag coding sequences were cloned into a pET24a-based E. coli expression vector. The E. coli expression vectors were transformed into OverExpress C41(DE3) cells (Lucigen) for protein expression. Recombinant E. coli strains were inoculated into 5 ml LB media supplemented with 40 mg/L kanamycin and cultured overnight at 37° C. The overnight culture (0.5 mL) was inoculated into 50 mL LB medium plus 40 mg/L kanamycin and grown at 30° C. until OD600 reached 0.6. The cultures were induced with 0.2 mM IPTG at 16° C., 230 rpm overnight. Cells were harvested by centrifugation at 7,000 rpm for 10 mins. The cell pellet from 50 mL of cell culture was frozen and thawed twice and then lysed in 800 μL lysis buffer A (150 mM NaCl, 50 mM Tris-HCl pH 8.0, 5 mM MgCl2, 10% glycerol) plus 20 mM imidazole, 1 mM DTT, 0.2 mg/ml lysozyme, 1/200 protease inhibitor cocktail (EMD set3, EDTA free) and 1/2000 endonuclease. Lysate was then centrifuged at 13,000 rpm for 30 min at 4° C. Supernatant was loaded onto 200 μL Ni-NTA columns pre-equilibrated with buffer A with 20 mM imidazole at 4° C. Each column was then washed with (1) 2×800 μL of buffer A with 10 mM imidazole, (2) 2×800 μL of buffer A with 20 mM imidazole and (3) 2×200 μL of buffer A with 50 mM imidazole. Protein was eluted with 200 μL of buffer A with 250 mM imidazole. The concentration was measured by Bradford assay. Purified protein was used in conjugation reaction assays as described in example 1.
Regarding B1, the “Detected auxin conjugates: Dicamba-Asp” value is “No”.

Turning to B2, the “Detected auxin conjugates: Dicamba-Asp” value is on record as “No”.

B3: the “Detected auxin conjugates: Dicamba-Asp” value is “No”.

With B4, the “Detected auxin conjugates: Dicamba-Asp” value is on record as “No”.

As for B5, the “Detected auxin conjugates: Dicamba-Asp” value is recorded as “No”.

The same assay, now with this note: LC-MS; dicamba with Glu.
For the molecule B1, the “Detected auxin conjugates: Dicamba-Glu” value is listed as “No”.

Take B2: the “Detected auxin conjugates: Dicamba-Glu” value is “No”.

As to B3, the “Detected auxin conjugates: Dicamba-Glu” value was “No”.

Consider B4, for which the “Detected auxin conjugates: Dicamba-Glu” value was “No”.

With B5, the “Detected auxin conjugates: Dicamba-Glu” value was “No”.
